Source: US20260242478A1 (published 2026)

Assays:
Anti-PSMA Fab [1] = biological target: T1, Anti-PSMA Fab (biotinylated (site not stated)); experiment: clonal phage ELISA on captured biotinylated PSMA Fab, anti-M13 HRP detection
T1 construct: Biotinylated PSMA Fab captured on neutravidin plates in the phage ELISA; also called 006 PSMA Fab

Anti-PSMA Fab [2] = biological target: T1, Anti-PSMA Fab; experiment: clonal phage ELISA on captured biotinylated PSMA Fab pre-incubated with PSMA antigen as competitor, anti-M13 HRP detection
Method: (§1) Clonal phage were harvested as crude supernatants and screened via standard ELISAs. […] Prior to the addition of clonal phage. wells were incubated with blocking buffer and PSMA antigen or blocking buffer alone. Without washing or aspirating, clonal phage supernatants were then added to the wells and incubated for a short time. Wells were then washed followed by detection of bound phage using a horse radish conjugated anti-M13 antibody.

PSMA Fab [3] = biological target: T2, PSMA Fab (biotinylated (site not stated)); experiment: clonal phage ELISA on captured PSMA Fab pre-incubated with PSMA antigen as competitor, anti-M13 HRP detection;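 also: crude clonal phage supernatants tested by ELISA, wells first treated with blocking buffer plus PSMA antigen, bound phage read out via HRP-linked anti-M13 antibody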
T2 construct: Biotinylated PSMA Fab captured on neutravidin plates for the clonal phage ELISA; also called Anti-PSMA Fab; 006 PSMA Fab

PSMA Fab [4] = biological target: T2, PSMA Fab; experiment: clonal phage ELISA on biotinylated PSMA Fab captured on neutravidin, blocking buffer alone, anti-M13 HRP detection;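 also: clonal phage were tested as crude supernatants, and the signal reflects phage still bound to the wells after washing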
Method: as §1

Anti-PSMA Fab [5] = biological target: T3, Anti-PSMA Fab (biotinylated (site not stated)); experiment: clonal phage ELISA on plate-captured biotinylated PSMA Fab, blocking buffer alone
T3 construct: Biotinylated PSMA Fab captured on neutravidin coated plates; also called 006 PSMA Fab

Anti-PSMA Fab [6] = biological target: T3, Anti-PSMA Fab; experiment: clonal phage ELISA on plate-captured biotinylated PSMA Fab, wells pre-incubated with PSMA antigen as competitor
Method: as §1

006 PSMA Fab [7] = biological target: T4, 006 PSMA Fab; experiment: clonal phage ELISA; biotinylated PSMA Fab captured on neutravidin plate, wells pre-incubated with PSMA antigen as competitor; bound phage detected with anti-M13 HRP
T4 construct: In the phage ELISA the PSMA Fab was biotinylated and captured on neutravidin coated plates; also called Anti-PSMA Fab
Method: as §1

006 PSMA Fab [8] = biological target: T4, 006 PSMA Fab; experiment: clonal phage ELISA; biotinylated PSMA Fab captured on neutravidin plate, blocking buffer alone; bound phage detected with anti-M13 HRP
Method: as §1

Binder | Phage binding ELISA signal, Anti-PSMA Fab in presence of PSMA antigen (PSMA Fab [3]) | Phage binding ELISA signal, Anti-PSMA Fab (PSMA Fab [4]) | Phage binding ELISA signal, Anti-PSMA Fab (Anti-PSMA Fab [5]) | phage binding ELISA signal (Anti-PSMA Fab with PSMA) (Anti-PSMA Fab [6]) | also measured
VVVQCIPEWMCNGF [Phage-3981] | – | – | – | – | Phage binding ELISA signal, Anti-PSMA Fab (Anti-PSMA Fab [1]): 0.729; Phage binding ELISA signal, Anti-PSMA Fab in presence of PSMA antigen (Anti-PSMA Fab [2]): 0.0683
PAQICMPAWMCHGF [Phage-3976] | 0.0646 | 0.754 | – | – | –
GGVMCRPMWMCAGF [Phage-3967] | 0.0836 | 0.81 | – | – | –
DARLCTPLWMCTGF [Phage-3972] | 0.0622 | 0.781 | – | – | –
ITRMCTPSWMCMSF (tested as crude clonal phage supernatant) [Phage-3964] | – | – | 0.814 | 0.078 | –
DVLMCKPEWMCLGY (tested as crude clonal phage supernatant) [Phage-3956] | – | – | 0.837 | 0.0628 | –
EGGYCVPTWMCSGF (tested as crude clonal phage supernatant) [Phage-3960] | – | – | 0.822 | 0.0786 | –
TQVKCIPLWMCDGF [Phage-3947] | – | – | – | – | Phage binding ELISA signal, Anti-PSMA Fab with PSMA antigen (006 PSMA Fab [7]): 0.0544; Phage binding ELISA signal, Anti-PSMA Fab (006 PSMA Fab [8]): 0.885
EAKWCTPQWMCGGF [Phage-3975] | 0.0703 | 0.756 | – | – | –
NGPMCVPQWMCDGT [Phage-3986] | – | – | – | – | Phage binding ELISA signal, Anti-PSMA Fab (Anti-PSMA Fab [1]): 0.691; Phage binding ELISA signal, Anti-PSMA Fab in presence of PSMA antigen (Anti-PSMA Fab [2]): 0.0558
HVQRCVPQWMCVGF [Phage-3987] | – | – | – | – | Phage binding ELISA signal, Anti-PSMA Fab (Anti-PSMA Fab [1]): 0.686; Phage binding ELISA signal, Anti-PSMA Fab in presence of PSMA antigen (Anti-PSMA Fab [2]): 0.119
VQTRCVPAWMCDGF [Phage-3971] | 0.0744 | 0.782 | – | – | –
LVSWCTPPWMCEGV (tested as crude clonal phage supernatant) [Phage-3961] | – | – | 0.818 | 0.131 | –
SYQLCKPEWMCHGW [Phage-3982] | – | – | – | – | Phage binding ELISA signal, Anti-PSMA Fab (Anti-PSMA Fab [1]): 0.715; Phage binding ELISA signal, Anti-PSMA Fab in presence of PSMA antigen (Anti-PSMA Fab [2]): 0.0692
STMSCVPSWMCLGF [Phage-3946] | – | – | – | – | Phage binding ELISA signal, Anti-PSMA Fab with PSMA antigen (006 PSMA Fab [7]): 0.0614; Phage binding ELISA signal, Anti-PSMA Fab (006 PSMA Fab [8]): 0.885
MATMCVPQWMCAGF (tested as crude clonal phage supernatant) [Phage-3965] | – | – | 0.814 | 0.141 | –
TIQWCEPLWMCRGF (tested as crude clonal phage supernatant) [Phage-3957] | – | – | 0.835 | 0.0643 | –
STLLCTPEWMCFGM [Phage-3969] | 0.0553 | 0.789 | – | – | –
GSVFCIPTWMCEQS (tested as crude clonal phage supernatant) [Phage-3966] | – | – | 0.813 | 0.07 | –
DARMCIPMWMCQAF [Phage-3977] | 0.0713 | 0.742 | – | – | –
AEMLCVPPWMCKAF (tested as crude clonal phage supernatant) [Phage-3959] | – | – | 0.823 | 0.0615 | –
FFQVCEPQWMCLGF (tested as crude clonal phage supernatant) [Phage-3954] | – | – | 0.854 | 0.0548 | –
QMSMCKPAWMCTGL [Phage-3973] | 0.0909 | 0.767 | – | – | –

Binder | Phage binding ELISA signal, Anti-PSMA Fab in presence of PSMA antigen (PSMA Fab [3]) | Phage binding ELISA signal, Anti-PSMA Fab (PSMA Fab [4]) | Phage binding ELISA signal, Anti-PSMA Fab (Anti-PSMA Fab [5]) | phage binding ELISA signal (Anti-PSMA Fab with PSMA) (Anti-PSMA Fab [6]) | also measured
AVHMCAPSWMCSGF [Phage-3952] | – | – | – | – | Phage binding ELISA signal, Anti-PSMA Fab with PSMA antigen (006 PSMA Fab [7]): 0.0825; Phage binding ELISA signal, Anti-PSMA Fab (006 PSMA Fab [8]): 0.87
ILPRCEPYWMCTGL [Phage-3950] | – | – | – | – | Phage binding ELISA signal, Anti-PSMA Fab with PSMA antigen (006 PSMA Fab [7]): 0.0634; Phage binding ELISA signal, Anti-PSMA Fab (006 PSMA Fab [8]): 0.872
LTVYCTPEWMCSGW [Phage-3948] | – | – | – | – | Phage binding ELISA signal, Anti-PSMA Fab with PSMA antigen (006 PSMA Fab [7]): 0.0749; Phage binding ELISA signal, Anti-PSMA Fab (006 PSMA Fab [8]): 0.882
STPYCVPDWMCAGF [Phage-3988] | – | – | – | – | Phage binding ELISA signal, Anti-PSMA Fab (Anti-PSMA Fab [1]): 0.683; Phage binding ELISA signal, Anti-PSMA Fab in presence of PSMA antigen (Anti-PSMA Fab [2]): 0.0729
SYMRCEPEWMCSGL [Phage-3970] | 0.121 | 0.786 | – | – | –
YERMCSPEWMCWDF [Phage-3983] | – | – | – | – | Phage binding ELISA signal, Anti-PSMA Fab (Anti-PSMA Fab [1]): 0.704; Phage binding ELISA signal, Anti-PSMA Fab in presence of PSMA antigen (Anti-PSMA Fab [2]): 0.0861
ISAECRPPWMCIGF (tested as crude clonal phage supernatant) [Phage-3963] | – | – | 0.815 | 0.0626 | –
LSVECIPVWMCNGF [Phage-3979] | 0.0832 | 0.732 | – | – | –
QQVRCVPDWMCSGF [Phage-3974] | 0.0755 | 0.762 | – | – | –
GFRTCVPSWMCTGF [Phage-3978] | 0.0906 | 0.734 | – | – | –
GLPQCVPPWMCDGF (tested as crude clonal phage supernatant) [Phage-3953] | – | – | 0.864 | 0.056 | –
EYRECVPDWMCSGF [Phage-3980] | 0.0722 | 0.731 | – | – | –
FDGWCVPAWMCYPF (tested as crude clonal phage supernatant) [Phage-3962] | – | – | 0.816 | 0.0796 | –
KHILCEPVWMCVGF [Phage-3984] | – | – | – | – | Phage binding ELISA signal, Anti-PSMA Fab (Anti-PSMA Fab [1]): 0.697; Phage binding ELISA signal, Anti-PSMA Fab in presence of PSMA antigen (Anti-PSMA Fab [2]): 0.0708
EIGACVPDWMCRGF [Phage-3968] | 0.0694 | 0.809 | – | – | –
YERVCVPSWMCNSL (tested as crude clonal phage supernatant) [Phage-3955] | – | – | 0.838 | 0.0845 | –
VENLCRPSWMCEGF [Phage-3985] | – | – | – | – | Phage binding ELISA signal, Anti-PSMA Fab (Anti-PSMA Fab [1]): 0.696; Phage binding ELISA signal, Anti-PSMA Fab in presence of PSMA antigen (Anti-PSMA Fab [2]): 0.112
GWVGCVPLWMCEGF [Phage-3949] | – | – | – | – | Phage binding ELISA signal, Anti-PSMA Fab with PSMA antigen (006 PSMA Fab [7]): 0.0698; Phage binding ELISA signal, Anti-PSMA Fab (006 PSMA Fab [8]): 0.878
LLIVCKPPWMCAGS [Phage-3990] | – | – | – | – | Phage binding ELISA signal, Anti-PSMA Fab (Anti-PSMA Fab [1]): 0.666; Phage binding ELISA signal, Anti-PSMA Fab in presence of PSMA antigen (Anti-PSMA Fab [2]): 0.0992
MTDRCKPEWMCFGF [Phage-3989] | – | – | – | – | Phage binding ELISA signal, Anti-PSMA Fab (Anti-PSMA Fab [1]): 0.677; Phage binding ELISA signal, Anti-PSMA Fab in presence of PSMA antigen (Anti-PSMA Fab [2]): 0.142
TAPWCQPRWMCDGF (tested as crude clonal phage supernatant) [Phage-3958] | – | – | 0.828 | 0.0701 | –
TVRSCTPPWMCEGF [Phage-3951] | – | – | – | – | Phage binding ELISA signal, Anti-PSMA Fab with PSMA antigen (006 PSMA Fab [7]): 0.0856; Phage binding ELISA signal, Anti-PSMA Fab (006 PSMA Fab [8]): 0.871
